# Data taken from the DeepSol protein solubility set.
# Assay: soluble on expression in E. coli; label from the status in PepcDB or PDB records
row,Sequence,soluble on expression in E. coli
1,MARTVDLELEAQIDILRDNNKKYENILKLAQTLSTQLFQMVHTQKQLGDAFADLSLKSLELHEKFGYNADTQKLLAKNGETLLGAINFFIASVNTLVNKTIEDTLMTVKQYENARVEYDAYRTDLEELNLGPRDANTLPKIEQSQHLFQIHKEKYDKMRSDVSVKLKFLEENKVKVLRNQLVLFHSAVAAYFAGNQKQLELTLKQFHVRLKTPGVDAPSWLEEQ,soluble
2,MTHIYEPRLSRIAIDKLRPTQIAVGFREVELKRKEWRETRKKDGDDFLGNHIVPVVAGPKDRAYLIDHHHLVLALSKEGVEHVLTSEVAKFSHLGKDEFWSVMDHRNLIYPFDAQGLRRQSGDIPKNIHDLEDDPFRSLAGALRMAGGYAKVIIPFSEFGWADFLRRRIDRDLLSDSFDDALAEAMKLAKSREARHLPGWCGVEEAAALEHHHHHH,soluble
3,MASSTVPVSAAGSANETPEIPDNVGDWLRGVYRFATDRNDFRRNLILNLGLFAAGVWLARNLSDIDLMAPQPGV,not soluble
4,MTRDLAPALQALSPLLGSWAGRGAGKYPTIRPFEYLEEVVFAHVGKPFLTYTQQTRAVADGKPLHSETGYLRVCRPGCVELVLAHPSGITEIEVGTYSVTGDVIELELSTRADGSIGLAPTAKEVTALDRSYRIDGDELSYSLQMRAVGQPLQDHLAAVLHRQRRSHHHHHH,soluble
5,MGSDKIHHHHHHMEKVLEIRDLKVYFDLTEGTVKAVDGVSFDIRRGEILGLVGESGCGKSVTAQSILRILPKSARIVNGEIVFHRNGKTLDLTRLDPEGEEIRDIRGKDISMIFQEPMASFSPVYTVGAQMIEAILLHENVSKEEARKRVVEMLKKVKIPNAEKVVDMYPFELSGGMLQRCMIAMAMSLNPTLLLADEPTTALDVTIQAQILYLMKELQKEYHSSILLITHDMGVVAQMADRVAVMYLGNIVETAEVFELFKNPLHPYTQALLRSIPKIGIRKTRLETIKGMVPDPYNLPTGCRFHNRCEKFMKGLCDVKEPPEVEVKPGHKVKCFLYGGEKE,not soluble
6,MTNDFATVLRQFVEGLDLGIKPRLDYLTRQEDLAIYPMPGGKVNNEYMDGTREISLPFEIAIKTKNQELASTVMWTINSALSNFDLKLPSLNHSYTFISLDVEKPFLNDLSDQGFYIYVLDITAHLEIEGNN,soluble
7,MFRSSFCKNLENATSHLRLEPDWPSILLICDEINQKDVTPKNAFAAIKKKMNSPNPHSSCYSLLVLESIVKNCGAPVHEEVFTKENCEMFSSFLESTPHENVRQKMLELVQTWAYAFRSSDKYQAIKDTMTILKAKGHTFPELREADAMFTADTAPNWADGRVCHRCRVEFTFTNRKHHCRNCGQVFCGQCTAKQCPLPKYGIEKEVRVCDGCFAALQRG,soluble
8,MAQVLRGTVTDFPGFDERADAETLRKAMKGLGTDEESILTLLTSRSNAQRQEISAAFKTLFGRDLLDDLKSELTGKFEKLIVALMKPSRLYDAYELKHALKGAGTNEKVLTEIIASRTPEELRAIKQVYEEEYGSSLEDDVVGDTSGYYQRMLVVLLQANRDPDAGIDEAQVEQDAQALFQAGELKWGTDEEKFITIFGTRSVSHLRKVFDKYMTISGFQIEETIDRETSGNLEQLLLAVVKSIRSIPAYLAETLYYAMKGAGTDDHTLIRVMVSRSEIDLFNIRKEFRKNFATSLYSMIKGDTSGDYKKALLLLCGEDD,soluble
9,MKNFVAGAQSGRKIQSGGCAIHCQDCSISQLCIPFTLNEQELDQLDNIIERKKPIQKSQVLFKAGDSLNSIYAIRSGTIKSYTISESGEEQITSFHLPGDLVGFDAITQMQHPSFAQALETAMVCEIPFDILDDLAGKMPKLRQQILRLMSSEIKSDQEMILLLSKMNAEERLAAFIHNLSKRYSARGFSAREFRLTMTRGDIGNYLGLTVETISRLLGRFQKLGVISVQGKYITINDLNGLIELTGTNKTKITLVK,not soluble
10,MGSDKIHHHHHHMKILRHFLNATDPCMLQQHIRSIKQDEPANLAIAFGNIDAIVHLSQATEITQLATSWVVTSSCIAAFSDIAAEDNQNHLAILQFYDPQGSYGVASKQSSIDSIIEDSQQALTLALNAANRPGELPAFIWCSQSPGLEEGLLAGIRQLVGNNVPVFGGTAADNDVSGHWCMFDGQQTITTGFIIAVLFPSTPINYFFSSGYETTRHTAIVTSASGRKLHTLNHQPAASVYNQWRTMMALPTLANGPVLAQSTFNPLGRVILDNDEQMTLLSHPAFIYGDGTMELFSEVYQGEQLTFMHGNQTLLIQRAQTVTHFATQQLHDLYDSKPLAAIVIFCAGCMLAIKNETSQVRQGVENALGNVPFIGGFTFGEQGRFADGVNRHGNLMISAIIFGHPNE,not soluble
11,LTELYDAIPASIIIIDERMRLIGWNRFSRDTINGLSDNEMPGINPMKRVHPDDLPEMIRKMRNVIDLDIELSAEFRMYHKSGPPYKWAMCRGKRTIIEGKTCVVAVVTEIT,not soluble
12,MSEELPNITTSEKKSFLQSLFSCLFQSEPKNREDLVEVIRDSLENELIDNDTKEMMEGVMEISELRVRDIMIPRPQIVYIDANLPLEACVDLIIESAHSRFPVILDDGKDNIQGMLLAKDLLKYLRSDSAPFDMQKMLRPAVIVPESKRVDRMLKEFRSERFHMAIVVDEFGAVSGLVTIEDILEQIVGDIEDEFDEEEIEPIRQLSRHTYAVSALTDIEKFNAVFATDFVDEEVDTIGGLVMQAFSHLPQRGEQVNLHGIDFKVTSADSRRLIQLRVTVSDEQLEQMERITDLEE,not soluble
13,MGSDKIHHHHHHMTESQALIWDETFPSLLLKGQGTTSFLHGQTTADVFAQKELDRIFMCCWLSTKGALKAVLEIRLSDDMAEIVIICGEINSIRDGFESVIFPADKVKLEVIDPIRRRQEINNNSSWKDSDFSWIDDNTFSIDGITKYKKATKEELEGWKIRQGIPSFDKEMNGETNPYELGLADTINLDKGCYLGQEAMAKFFRSKSLKYQLRYWEAYGENDNFQIGKKFFNTNKNEGYKKNVGVVTSSIRVDDNFFNGLALIKKTFLDHDFCFSENGDSITIKKPISFTNPF,not soluble
14,MRNEMHLQFSARSENESFARVTVAAFVAQLDPTMDELTEIKTVVSEAVTNAIIHGYNNDPNGIVSISVIIEDGVVHLTVRDEGVGIPDIEEARQPLFTTKPELERSGMGFTIMENFMDEVIVESEVNKGTTVYLKKHIVKSKRYLEGSSF,soluble
15,MGSDKIHHHHHHMLKCSICINDERITRILIVDGRPICKECKVFLEHPPDKEKIKKELEEILSKVDKAIVAYSGGKDSIVALYLAKEKYSIDVEAVMVDHGFIAPQAIKNAKNVAKYLDVPLTIIKRDYSDIFREALLKAKSPCRKCSRRTMEILRKYALKKGYRYMITGHELPFGHHPYRLMSGGIIQVRILSLMSEEERMKILKKLPVELPELPGYTSNCLILGPALQRFWERHGYSFEHRRIAALVRYGLLNKEKALKKVQKPEVPQWQWELVKKKLKLEDGF,not soluble
16,MGSDKIHHHHHHMSEQVRSLSEFTAEVEAMTAAMMTEEPQEIASMRCGEMENTAGSYGQYFGTWDIAHGMLRDYSMYTLYPITALAEDAEMDLTSLSKTVDALDPAYSNYLRYSGFPRMGKLAVELRGLIRASTSRSDIVAALRAFTAYTNRLQAWSFHYFPWGLGKHFRYDEARLQDAPLPVADLGATRACITCGQRIRISWEPLGITVNATLASEENPELCADVVAALPFTVIQDHAVVTGESMYAWTPVLSTAPIHLRERICDAPVGRLRYSQSTGQKFIVQYGPTTEDLSQPVLGEIDAADAGKLEQVGRAVWDSTFDNKQLIWMTVELA,not soluble
17,MNARSTGQHPARYPGAAAGEPTLDSWQEPPHNRWAFAHLGEMVPSAAVSRRPVNAPGHALVRLGAIAAQLPDLEQRLEQTYTDAFLVLRGTEVVAEYYRAGFAPDDRHLLMSVSKSLCGTVVGVLVDEGRIDPAQPVTEYVPELAGSVYDGPSVLQVLDMQISIDYNEDYVDPASEVQTHGRSAGWSTRRHGDPADTYEFLTTLRGDGSTGEFQYCSANTDVLAWIVERVTGLRYVEALSTYLWAKLDADRDATITVDTTGFGCAHGGVSCTARDLARVGRMMLDGGVAPRGRVVSEDWVRRVLAGGSHEAMTDKGFTNTFPDGSYTRQWWCTGNERANVSGIGIHGQNLWLDPLTDSVIVKLSSWPDPYTEHWHRLQNGILLDVSRALDAV,soluble
18,MGSDKIHHHHHHMNIEKTRFCINRKIAPGLSIEAFFRLVKRLEFNKVELRNDMPSGSVTDDLNYNQVRNLAEKYGLEIVTINAVYPFNQLTEEVVKKTEGLLRDAQGVGARALVLCPLNDGTIVPPEVTVEAIKRLSDLFARYDIQGLVEPLGFRVSSLRSAVWAQQLIREAGSPFKVLLDTFHHHLYEEAEKEFASRIDISAIGLVHLSGVEDTRPTEALADEQRIMLSEKDVMQNYQQVQRLENMGYRGIYAFEPFSSQLASWSEAEIEEQINRSVSLLLQ,not soluble
19,MEELGYVTDAEINAKLAELKGKVPSVVINELREKLMAKKDSLTPRQLDEIVKRVLEAYGSQAAKYEQISKRVDELGKKLSDLSSQLARLVEALEEKKFAVHEKKAEAVAEKAAEVSEKIEKIEEMLEEKPRKSEIEKKLEELHRKIEELSERVAKEKVEETKARIEELEEKIAKGEEIKPEEIKEIEEEVEELGEFEEAPVEEIVVEEEKPPEPVEEVPVVEEKKEEVIEEVPVEEVVEEEKVPSHVVEEEKVEEEGGREMAEKMKIPEDIASLLFEEEPRKARLEEIPDDVVSIMIALKWLGFLIDRVGIQNLEKVLEFYYDIGWISEKVFNQLLRFAKGTRPHHRDPEWKPAEKLTVQDHLISLLFIERLRGLRITRDVLDKLEREIKMLEKTLDEFYGV,not soluble
20,MLTYYRDLFSLKLASCLDMEYSSFENATKINFREFFPEARSLTFSKKPDAKQGMQGGGMLKMLIDEKETIFYIKAFTGLNEENAIKLNELVVCKILHRMGKGPNYWFYINNHFSKKAVYMASKEVVGCG,not soluble
21,MGSDKIHHHHHHMKFLPLIAMCLFLTGCVGDRSDLELFVTTTKAQHVAHIPPLKEPPRFEHFAYQAELMRSPFVPPSRELTEEVVDTSKDCLQPDLKRRKGRLETYPLDNLKMRGTLSEADTTWALVETNDGSVYRMGTGEYLGLFNGRISKVTSQNVEVVELIPDGSGCWSERTSNLELSGE,not soluble
22,MTIYTCTLNLAIDLFIETEELVPFVVNRTKEDDIQANGKGVNVSLILKMLGIDNTALGVKAGFTGNYVEDYLKEKEITTDFIEVAGTTRINVFTKVTQDQKEYKLVNKGPKLSEEHVQRFLKKISELRKGDYLCVSGSLPQGVSPSILIEISRICFEKQVFLILDSSYEEILDCLPYQPFLLKPNEEELQEWFHTEVQTKDDYIFYGQELLKRGAKNILLSLGSEGALFMNNEKVLSGNSPTGMVVNTACSGDAMLGTFLAGWHQGLSLEKNLKRSIAAGSSTAFRKGLTDFSDVQELEQQIKIQEEE,not soluble
23,MGSDKIHHHHHHMQSLSSHYHQLLGLPSNWEVENVNLSMSSRQVEIRLAFTGKQGECPICGQSCLIYDHAAEQRWRHLDTMQFETILVARLPRCQCKEHGVKTVQAPWAARHSRFTLLFESFAVELLLHCANIKAASRLLRLNWHTVNQIMRRAVQRGLVRRKTETVEYLGIDEKSFKAGQHDVTTLTDLGERRVLEVVEHRTTEATKELLASLNDSQQAGVKAVSVDMWKPFIHAVQELLPKADLVHDRFHISKYLNEAVDLVRRKECRQLDKAGDKRLIGSTYVWLRNPENMGEQQQAELGKLMDAEFRTGKAWSLKNMFRAFWQLGCADAGTFFFEYWSKRIDEVGLVPLTKVKELLQRHFGNVLTWFKHPITNAVSEGLNSKIQIVKASARGFHRFESYRIRILFYCGKLNMAIGS,not soluble
